Source: doi:10.1101/586461 (bioRxiv, 2019)

Columns and labels:
negative stain EM = biological target: the molecule itself; assay: negative stain EM
cryo-electron tomography = biological target: the molecule itself; assay: cryo-electron tomography

Protein	binding result (negative stain EM)	binding result (cryo-electron tomography)
non-tagged human dynamin 1 (hDyn1) (natural protein) MGNRGMEDLIPLVNRLQDAFSAIGQNADLDLPQIAVVGGQSAGKSSVLENFVGRDFLPRGSGIVTRRPLVLQLVNATTEYAEFLHCKGKKFTDFEEVRLEIEAETDRVTGTNKGISPVPINLRVYSPHVLNLTLVDLPGMTKVPVGDQPPDIEFQIRDMLMQFVTKENCLILAVSPANSDLANSDALKVAKEVDPQGQRTIGVITKLDLMDEGTDARDVLENKLLPLRRGYIGVVNRSQKDIDGKKDITAALAAERKFFLSHPSYRHLADRMGTPYLQKVLNQQLTNHIRDTLPGLRNKLQSQLLSIEKEVEEYKNFRPDDPARKTKALLQMVQQFAVDFEKRIEGSGDQIDTYELSGGARINRIFHERFPFELVKMEFDEKELRREISYAIKNIHGIRTGLFTPDMAFETIVKKQVKKIREPCLKCVDMVISELISTVRQCTKKLQQYPRLREEMERIVTTHIREREGRTKEQVMLLIDIELAYMNTNHEDFIGFANAQQRSNQMNKKKTSGNQDEILVIRKGWLTINNIGIMKGGSKEYWFVLTAENLSWYKDDEEKEKKYMLSVDNLKLRDVEKGFMSSKHIFALFNTEQRNVYKDYRQLELACETQEEVDSWKASFLRAGVYPERVGDKEKASETEENGSDSFMHSMDPQLERQVETIRNLVDSYMAIVNKTVRDLMPKTIMHLMINNTKEFIFSELLANLYSCGDQNTLMEESAEQAQRRDEMLRMYHALKEALSIIGDINTTTVSTPMPPPVDDSWLQVQSVPAGRRSPTSSPTPQRRAPAVPPARPGSRGPAPGPPPAGSALGGAPPVPSRPGASPDPFGPPPQVPSRPNRAPPGVPSRSGQASPSRPESPRPPFDL	binds	
N-terminal His-tagged human dynamin 1 (hDyn1) (natural protein) MGNRGMEDLIPLVNRLQDAFSAIGQNADLDLPQIAVVGGQSAGKSSVLENFVGRDFLPRGSGIVTRRPLVLQLVNATTEYAEFLHCKGKKFTDFEEVRLEIEAETDRVTGTNKGISPVPINLRVYSPHVLNLTLVDLPGMTKVPVGDQPPDIEFQIRDMLMQFVTKENCLILAVSPANSDLANSDALKVAKEVDPQGQRTIGVITKLDLMDEGTDARDVLENKLLPLRRGYIGVVNRSQKDIDGKKDITAALAAERKFFLSHPSYRHLADRMGTPYLQKVLNQQLTNHIRDTLPGLRNKLQSQLLSIEKEVEEYKNFRPDDPARKTKALLQMVQQFAVDFEKRIEGSGDQIDTYELSGGARINRIFHERFPFELVKMEFDEKELRREISYAIKNIHGIRTGLFTPDMAFETIVKKQVKKIREPCLKCVDMVISELISTVRQCTKKLQQYPRLREEMERIVTTHIREREGRTKEQVMLLIDIELAYMNTNHEDFIGFANAQQRSNQMNKKKTSGNQDEILVIRKGWLTINNIGIMKGGSKEYWFVLTAENLSWYKDDEEKEKKYMLSVDNLKLRDVEKGFMSSKHIFALFNTEQRNVYKDYRQLELACETQEEVDSWKASFLRAGVYPERVGDKEKASETEENGSDSFMHSMDPQLERQVETIRNLVDSYMAIVNKTVRDLMPKTIMHLMINNTKEFIFSELLANLYSCGDQNTLMEESAEQAQRRDEMLRMYHALKEALSIIGDINTTTVSTPMPPPVDDSWLQVQSVPAGRRSPTSSPTPQRRAPAVPPARPGSRGPAPGPPPAGSALGGAPPVPSRPGASPDPFGPPPQVPSRPNRAPPGVPSRSGQASPSRPESPRPPFDL		binds
Drosophila dynamin Shibire (Shi), wild type (natural protein) MDSLITIVNKLQDAFTSLGVHMQLDLPQIAVVGGQSAGKSSVLENFVGKDFLPRGSGIVTRRPLILQLINGVTEYGEFLHIKGKKFSSFDEIRKEIEDETDRVTGSNKGISNIPINLRVYSPHVLNLTLIDLPGLTKVAIGDQPVDIEQQIKQMIFQFIRKETCLILAVTPANTDLANSDALKLAKEVDPQGVRTIGVITKLDLMDEGTDARDILENKLLPLRRGYIGVVNRSQKDIEGRKDIHQALAAERKFFLSHPSYRHMADRLGTPYLQRVLNQQLTNHIRDTLPGLRDKLQKQMLTLEKEVEEFKHFQPGDASIKTKAMLQMIQQLQSDFERTIEGSGSALVNTNELSGGAKINRIFHERLRFEIVKMACDEKELRREISFAIRNIHGIRVGLFTPDMAFEAIVKRQIALLKEPVIKCVDLVVQELSVVVRMCTAKMSRYPRLREETERIITTHVRQREHSCKEQILLLIDFELAYMNTNHEDFIGFANAQNKSENANKTGTRQLGNQVIRKGHMVIQNLGIMKGGSRPYWFVLTSESISWYKDEDEKEKKFMLPLDGLKLRDIEQGFMSMSRRVTFALFSPDGRNVYKDYKQLELSCETVEDVESWKASFLRAGVYPEKQETQENGDESASEESSSDPQLERQVETIRNLVDSYMKIVTKTTRDMVPKAIMMLIINNAKDFINGELLAHLYASGDQAQMMEESAESATRREEMLRMYRACKDALQIIGDVSMATVSSPLPPPVKNDWLPSGLDNPRLSPPSPGGVRGKPGPPAQSSLGGRNPPLPPSTGRPAPAIPNRPGGGAPPLPGGRPGGSLPPPMLPSRVSGAVGGAIVQQSGANRYVPESMRGQVNQAVGQAAINELSNAFSSRFK		binds
